In patent US20140087995A1 (published 2014):
Numbered stars: 1 amine (or outer) side, 2 acyl side, 3 side chain; on linkers, the order of the positions; unused ones are H or OH. Bridge positions count the residues as written; N and C are the ends. Side chains are listed from the residue outwards. Ends that are not written are not given here. * marks the point of attachment. C20 diacid = O=C(O)CCCCCCCCCCCCCCCCCCC(=O)*; γGlu = O=C(O)[C@H](CCC(=O)[*:2])N[*:1]; C14 diacid = O=C(O)CCCCCCCCCCCCC(=O)*

T1: human calcitonin receptor (human, UniProt P30988 25-474)
T1 construct: whole, on cells; Used as cell membranes; also called hCTR; hCT
T1 sequence (looked up): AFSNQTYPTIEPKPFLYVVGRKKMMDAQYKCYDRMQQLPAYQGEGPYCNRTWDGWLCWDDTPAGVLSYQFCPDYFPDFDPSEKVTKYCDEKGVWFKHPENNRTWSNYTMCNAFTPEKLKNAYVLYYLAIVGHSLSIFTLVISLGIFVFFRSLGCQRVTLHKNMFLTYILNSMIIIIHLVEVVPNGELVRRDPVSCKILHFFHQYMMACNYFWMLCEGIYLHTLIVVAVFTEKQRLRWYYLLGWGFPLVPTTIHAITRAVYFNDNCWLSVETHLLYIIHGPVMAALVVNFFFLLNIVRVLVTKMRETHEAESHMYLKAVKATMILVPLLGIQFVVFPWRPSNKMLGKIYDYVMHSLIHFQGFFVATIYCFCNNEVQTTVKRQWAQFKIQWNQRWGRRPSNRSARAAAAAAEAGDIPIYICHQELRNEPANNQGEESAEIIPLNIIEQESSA

T2: human amylin receptor (amylin 3(a) receptor: human calcitonin receptor with RAMP-3) (human, UniProt P30988 25-474; O60896 24-148)
T2 construct: whole, on cells; Used as cell membranes of the Amylin 3(a)/CRE-luc BHK cells; the species of RAMP-3 is only implied by the name human amylin receptor; also called hAmylin-R; hAmylinR
T2 sequence (looked up) 1: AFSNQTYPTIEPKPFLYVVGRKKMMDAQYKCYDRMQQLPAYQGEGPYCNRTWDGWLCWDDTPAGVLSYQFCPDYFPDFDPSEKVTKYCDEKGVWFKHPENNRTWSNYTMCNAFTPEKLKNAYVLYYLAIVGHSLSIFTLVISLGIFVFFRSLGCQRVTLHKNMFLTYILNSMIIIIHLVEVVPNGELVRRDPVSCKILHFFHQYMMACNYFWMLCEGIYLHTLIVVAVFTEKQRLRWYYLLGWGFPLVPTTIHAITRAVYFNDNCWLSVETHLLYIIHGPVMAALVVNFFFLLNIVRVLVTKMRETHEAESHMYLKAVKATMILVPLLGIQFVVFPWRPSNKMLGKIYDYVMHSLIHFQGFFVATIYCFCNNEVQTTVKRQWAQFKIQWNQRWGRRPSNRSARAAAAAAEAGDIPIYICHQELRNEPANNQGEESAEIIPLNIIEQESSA
T2 sequence (looked up) 2: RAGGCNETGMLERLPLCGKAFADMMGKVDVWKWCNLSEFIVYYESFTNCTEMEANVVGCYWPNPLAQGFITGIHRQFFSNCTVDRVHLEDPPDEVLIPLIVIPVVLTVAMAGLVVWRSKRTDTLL


Assays:
[1] = target: T1, human calcitonin receptor; test: ratio of hCTR IC50 to hAmylin-R IC50 (reference: human amylin receptor)
How it was run: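 Scintillation proximity competition binding on cell membranes at 35 ng/μL with SPA beads, in 50 mM Hepes pH 7.4, 1 mM CaCl2, 5 mM MgCl₂, 0.1% OA, 0.02% Tween20. Incubated 120 min at 25° C with shaking. IC₅₀ from one-site competition fit.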

[2] = target: T2, human amylin receptor (amylin 3(a) …); test: SPA competition on BHK cell membranes, 125I-rat amylin as radioligand (Assay V)
Procedure: The binding assay was performed using scintillation proximity assay (SPA) beads (RPNQ0001) from PerkinElmer and cell membranes from the Amylin 3(a)/CRE-luc cells (as described in Assay (II)) were used. Membranes were prepared in the following way; the cells were rinsed with PBS and incubated with Versene for approximately 5 min before harvesting. The cells were flushed with PBS and the cell-suspension was centrifuged for 5 min at 1000 rpm. Cells were homogenized (ultrathurrax) in a buffer containing 20 mM Na-HEPES and 10 mM EDTA (pH 7.4) and centrifuged at 20.000 rpm for 15 min. The resulting pellet was resuspended, homogenized and centrifuged (20.000 rpm, 15 min) in a buffer containing 20 mM Na-HEPES and 0.1 mM EDTA (pH 7.4, buffer 2). The resulting pellet was resuspended in buffer 2 and protein concentration was measured (BCA protein Assay, Pierce). The homogenate was kept cold during the whole procedure. The membranes were kept at −80° C. until use. The assay was performed in a 384 well Optiplate (PerkinElmer) in a total volume of 40 ul. Membranes were mixed with SPA beads. Final concentration of membranes 35 ng/μL final and SPA beads was 0.05 mg/well. Test-compounds were dissolved in DMSO and further diluted in assay buffer (50 mM Hepes, pH 7.4, 1 mM CaCl2, 5 mM MgCl₂, 0.1% OA and 0.02% Tween20). […] The final mixture was incubated with shaking at 400 rpm for 120 min at 25° C. prior to centrifugation (1500 rpm, 10 min). Samples were analyzed on TopCounter™ (Packard). The IC₅₀ was calculated using (one site binding competition analysis) GraphPad Prism5 as a measure of receptor affinity.

[3] = target: T1, human calcitonin receptor; test: SPA competition on BHK cell membranes, 125I-calcitonin as radioligand (Assay VII)
How it was run: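 BHK hCTR membranes 35 ng/μL + SPA beads 0.05 mg/well; buffer 50 mM Hepes pH 7.4, 1 mM CaCl2, 5 mM MgCl₂, 0.1% OA, 0.02% Tween20. 120 min, 25° C., shaking. Scintillation count; IC50 by one-site binding competition.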

Binder | Ratio hCT/hAmylin binding [1] | IC50 [2] | IC50 [3]
K([γGlu-γGlu-C20 diacid])CNTATCATQRLANFLRHSSPNFGAIPSSTNVGHNTY-NH2 (disulfide 2-7; N-terminus assumed; SMILES CC[C@H](C)[C@H](NC(=O)[C@H](C)NC(=O)CNC(=O)[C@H](Cc1ccccc1)NC(=O)[C@H](CC(N)=O)NC(=O)[C@@H]1CCCN1C(=O)[C@H](CO)NC(=O)[C@H](CO)NC(=O)[C@H](Cc1c[nH]cn1)NC(=O)[C@H](CCCNC(=N)N)NC(=O)[C@H](CC(C)C)NC(=O)[C@H](Cc1ccccc1)NC(=O)[C@H](CC(N)=O)NC(=O)[C@H](C)NC(=O)[C@H](CC(C)C)NC(=O)[C@H](CCCNC(=N)N)NC(=O)[C@H](CCC(N)=O)NC(=O)[C@@H](NC(=O)[C@H](C)NC(=O)[C@@H]1CSSC[C@H](NC(=O)[C@@H](N)CCCCNC(=O)CC[C@H](NC(=O)CC[C@H](NC(=O)CCCCCCCCCCCCCCCCCCC(=O)O)C(=O)O)C(=O)O)C(=O)N[C@@H](CC(N)=O)C(=O)N[C@@H]([C@@H](C)O)C(=O)N[C@@H](C)C(=O)N[C@@H]([C@@H](C)O)C(=O)N1)[C@@H](C)O)C(=O)N1CCC[C@H]1C(=O)N[C@@H](CO)C(=O)N[C@@H](CO)C(=O)N[C@H](C(=O)N[C@@H](CC(N)=O)C(=O)N[C@H](C(=O)NCC(=O)N[C@@H](Cc1c[nH]cn1)C(=O)N[C@@H](CC(N)=O)C(=O)N[C@H](C(=O)N[C@@H](Cc1ccc(O)cc1)C(N)=O)[C@@H](C)O)C(C)C)[C@@H](C)O, also called compound 86) | 159 | 0.833 nM | 133 nM
K([γGlu-C20 diacid])CNTATCATQRLAHFLRHSSPNFGAIPSSTNVGRNTY-NH2 (disulfide 2-7; N-terminus assumed; SMILES CC[C@H](C)[C@H](NC(=O)[C@H](C)NC(=O)CNC(=O)[C@H](Cc1ccccc1)NC(=O)[C@H](CC(N)=O)NC(=O)[C@@H]1CCCN1C(=O)[C@H](CO)NC(=O)[C@H](CO)NC(=O)[C@H](Cc1c[nH]cn1)NC(=O)[C@H](CCCNC(=N)N)NC(=O)[C@H](CC(C)C)NC(=O)[C@H](Cc1ccccc1)NC(=O)[C@H](Cc1c[nH]cn1)NC(=O)[C@H](C)NC(=O)[C@H](CC(C)C)NC(=O)[C@H](CCCNC(=N)N)NC(=O)[C@H](CCC(N)=O)NC(=O)[C@@H](NC(=O)[C@H](C)NC(=O)[C@@H]1CSSC[C@H](NC(=O)[C@@H](N)CCCCNC(=O)CC[C@H](NC(=O)CCCCCCCCCCCCCCCCCCC(=O)O)C(=O)O)C(=O)N[C@@H](CC(N)=O)C(=O)N[C@@H]([C@@H](C)O)C(=O)N[C@@H](C)C(=O)N[C@@H]([C@@H](C)O)C(=O)N1)[C@@H](C)O)C(=O)N1CCC[C@H]1C(=O)N[C@@H](CO)C(=O)N[C@@H](CO)C(=O)N[C@H](C(=O)N[C@@H](CC(N)=O)C(=O)N[C@H](C(=O)NCC(=O)N[C@@H](CCCNC(=N)N)C(=O)N[C@@H](CC(N)=O)C(=O)N[C@H](C(=O)N[C@@H](Cc1ccc(O)cc1)C(N)=O)[C@@H](C)O)C(C)C)[C@@H](C)O, also called compound 85) | 91.8 | 0.876 nM | 80.4 nM
K([γGlu-γGlu-C20 diacid])CNTATCATQRLAEFLRHSSPNFGAIPSSTNVGSRTY-NH2 (disulfide 2-7; N-terminus assumed; SMILES CC[C@H](C)[C@H](NC(=O)[C@H](C)NC(=O)CNC(=O)[C@H](Cc1ccccc1)NC(=O)[C@H](CC(N)=O)NC(=O)[C@@H]1CCCN1C(=O)[C@H](CO)NC(=O)[C@H](CO)NC(=O)[C@H](Cc1c[nH]cn1)NC(=O)[C@H](CCCNC(=N)N)NC(=O)[C@H](CC(C)C)NC(=O)[C@H](Cc1ccccc1)NC(=O)[C@H](CCC(=O)O)NC(=O)[C@H](C)NC(=O)[C@H](CC(C)C)NC(=O)[C@H](CCCNC(=N)N)NC(=O)[C@H](CCC(N)=O)NC(=O)[C@@H](NC(=O)[C@H](C)NC(=O)[C@@H]1CSSC[C@H](NC(=O)[C@@H](N)CCCCNC(=O)CC[C@H](NC(=O)CC[C@H](NC(=O)CCCCCCCCCCCCCCCCCCC(=O)O)C(=O)O)C(=O)O)C(=O)N[C@@H](CC(N)=O)C(=O)N[C@@H]([C@@H](C)O)C(=O)N[C@@H](C)C(=O)N[C@@H]([C@@H](C)O)C(=O)N1)[C@@H](C)O)C(=O)N1CCC[C@H]1C(=O)N[C@@H](CO)C(=O)N[C@@H](CO)C(=O)N[C@H](C(=O)N[C@@H](CC(N)=O)C(=O)N[C@H](C(=O)NCC(=O)N[C@@H](CO)C(=O)N[C@@H](CCCNC(=N)N)C(=O)N[C@H](C(=O)N[C@@H](Cc1ccc(O)cc1)C(N)=O)[C@@H](C)O)C(C)C)[C@@H](C)O, also called compound 89) | 28 | 1.16 nM | 32.5 nM

The remaining binders from weak to strong by IC50 [2], led by results:

Ratio hCT/hAmylin binding [1] | IC50 [2] | IC50 [3] | Binder
23.5 | 1.04 nM | 24.3 nM | K([γGlu-C14 diacid])CNTATCATQRLANFLRHSSPNFGAIPSSTNVGHNTY-NH2 (disulfide 2-7; N-terminus assumed; SMILES CC[C@H](C)[C@H](NC(=O)[C@H](C)NC(=O)CNC(=O)[C@H](Cc1ccccc1)NC(=O)[C@H](CC(N)=O)NC(=O)[C@@H]1CCCN1C(=O)[C@H](CO)NC(=O)[C@H](CO)NC(=O)[C@H](Cc1c[nH]cn1)NC(=O)[C@H](CCCNC(=N)N)NC(=O)[C@H](CC(C)C)NC(=O)[C@H](Cc1ccccc1)NC(=O)[C@H](CC(N)=O)NC(=O)[C@H](C)NC(=O)[C@H](CC(C)C)NC(=O)[C@H](CCCNC(=N)N)NC(=O)[C@H](CCC(N)=O)NC(=O)[C@@H](NC(=O)[C@H](C)NC(=O)[C@@H]1CSSC[C@H](NC(=O)[C@@H](N)CCCCNC(=O)CC[C@H](NC(=O)CCCCCCCCCCCCC(=O)O)C(=O)O)C(=O)N[C@@H](CC(N)=O)C(=O)N[C@@H]([C@@H](C)O)C(=O)N[C@@H](C)C(=O)N[C@@H]([C@@H](C)O)C(=O)N1)[C@@H](C)O)C(=O)N1CCC[C@H]1C(=O)N[C@@H](CO)C(=O)N[C@@H](CO)C(=O)N[C@H](C(=O)N[C@@H](CC(N)=O)C(=O)N[C@H](C(=O)NCC(=O)N[C@@H](Cc1c[nH]cn1)C(=O)N[C@@H](CC(N)=O)C(=O)N[C@H](C(=O)N[C@@H](Cc1ccc(O)cc1)C(N)=O)[C@@H](C)O)C(C)C)[C@@H](C)O) [N^ε1-[(4S)-4-carboxy-4-(13-carboxytridecanoylamino)butanoyl]-[Arg17,Pro21,Pro27,His34]-h-amylin]
65.3 | 1.01 nM | 66.3 nM | {C20 diacid-γGlu}-GRCNTATCATQRLAHFLRHSSPNFGAIPSSTNVGHNTY-NH2 (disulfide 3-8; SMILES CC[C@H](C)[C@H](NC(=O)[C@H](C)NC(=O)CNC(=O)[C@H](Cc1ccccc1)NC(=O)[C@H](CC(N)=O)NC(=O)[C@@H]1CCCN1C(=O)[C@H](CO)NC(=O)[C@H](CO)NC(=O)[C@H](Cc1c[nH]cn1)NC(=O)[C@H](CCCNC(=N)N)NC(=O)[C@H](CC(C)C)NC(=O)[C@H](Cc1ccccc1)NC(=O)[C@H](Cc1c[nH]cn1)NC(=O)[C@H](C)NC(=O)[C@H](CC(C)C)NC(=O)[C@H](CCCNC(=N)N)NC(=O)[C@H](CCC(N)=O)NC(=O)[C@@H](NC(=O)[C@H](C)NC(=O)[C@@H]1CSSC[C@H](NC(=O)[C@H](CCCNC(=N)N)NC(=O)CNC(=O)CC[C@H](NC(=O)CCCCCCCCCCCCCCCCCCC(=O)O)C(=O)O)C(=O)N[C@@H](CC(N)=O)C(=O)N[C@@H]([C@@H](C)O)C(=O)N[C@@H](C)C(=O)N[C@@H]([C@@H](C)O)C(=O)N1)[C@@H](C)O)C(=O)N1CCC[C@H]1C(=O)N[C@@H](CO)C(=O)N[C@@H](CO)C(=O)N[C@H](C(=O)N[C@@H](CC(N)=O)C(=O)N[C@H](C(=O)NCC(=O)N[C@@H](Cc1c[nH]cn1)C(=O)N[C@@H](CC(N)=O)C(=O)N[C@H](C(=O)N[C@@H](Cc1ccc(O)cc1)C(N)=O)[C@@H](C)O)C(C)C)[C@@H](C)O, 38 residues; also called compound 100)
